Assay results reported in patent US20240287138A1 (Merck Sharp & Dohme, published 2024).
Numbered stars: 1 amine (or outer) side, 2 acyl side, 3 side chain; on linkers, the order of the positions; unused ones are H or OH. Bridge positions count the residues as written; N and C are the ends. Square brackets hold non-standard residues; d marks the D form. 1S4RAcpc = (1S,4R)-4-Aminocyclopent-2-ene-1-carboxylic acid, O=C([C@@H]1C=C[C@H](N[*:1])C1)[*:2]; bhcLeu = (1R,3S)-3-aminocyclopentane-1-carboxylic acid, O=C([C@@H]1CC[C@H](N[*:1])C1)[*:2]; dPro4cPr = (R)-5-Azaspiro[2.4]heptane-6-carboxylic acid, O=C([C@H]1CC2(CC2)CN1[*:1])[*:2]; FX1 = N5-(Pyridin-3-yl)-L-glutamine, O=C(CC[C@H](N[*:1])C(=O)[*:2])Nc1cccnc1; hSOMe = (S)-2-Amino-4-methoxybutanoic acid, COCC[C@H](N[*:1])C(=O)[*:2]; Trp(βS-Me,7-OMe) = COc1cccc2c([C@H](C)[C@H](N)C(=O)O)c[nH]c12; Phe(4-CH2SO3H) = N[C@@H](Cc1ccc(CS(=O)(=O)O)cc1)C(=O)O; Trp(7-Cl) = N[C@@H](Cc1c[nH]c2c(Cl)cccc12)C(=O)O; Phe(4-CONH2) = NC(=O)c1ccc(C[C@H](N)C(=O)O)cc1; Phe(4-COOH) = N[C@@H](Cc1ccc(C(=O)O)cc1)C(=O)O; Trp(7-aza) = N[C@@H](Cc1c[nH]c2ncccc12)C(=O)O; Pip(5R-OH) = O=C(O)[C@@H]1CC[C@@H](O)CN1; Tyr(2-F) = N[C@@H](Cc1ccc(O)cc1F)C(=O)O; AEF = NCCOc1ccc(C[C@H](N)C(=O)O)cc1; Val(3-OH) = CC(C)(O)[C@H](N)C(=O)O; Pip(4-aza) = O=C(O)[C@@H]1CNCCN1; 4Pal = N[C@@H](Cc1ccncc1)C(=O)O; NMeE = CN[C@@H](CCC(=O)O)C(=O)O; dHyp = O=C(O)[C@H]1C[C@H](O)CN1; NMeS = CN[C@@H](CO)C(=O)O; αMeS = C[C@](N)(CO)C(=O)O; Nle = CCCC[C@H](N)C(=O)O; Pip2c = not defined here; Bhv = not defined here; Sar = CNCC(=O)O

T1: TNFR1 on THP-1 Lucia NF-κB cells (UniProt P19438 30-455, limits assumed)
T1 sequence (looked up): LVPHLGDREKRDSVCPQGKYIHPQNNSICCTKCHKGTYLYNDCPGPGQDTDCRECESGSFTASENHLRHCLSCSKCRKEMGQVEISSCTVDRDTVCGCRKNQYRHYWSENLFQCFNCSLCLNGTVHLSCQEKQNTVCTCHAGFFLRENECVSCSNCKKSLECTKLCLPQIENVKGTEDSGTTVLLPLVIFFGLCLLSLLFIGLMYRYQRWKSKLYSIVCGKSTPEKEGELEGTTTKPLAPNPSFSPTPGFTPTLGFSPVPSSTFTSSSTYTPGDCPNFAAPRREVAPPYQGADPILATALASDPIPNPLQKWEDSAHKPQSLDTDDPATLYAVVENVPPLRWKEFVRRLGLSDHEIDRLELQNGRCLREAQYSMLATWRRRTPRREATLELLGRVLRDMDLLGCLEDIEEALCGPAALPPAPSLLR

B1: SEQ ID NO. 181 (peptide)
peptide: cyclo([bhcLeu][Nle][4Pal][Pip(4-aza)]W[NMeE][hSOMe][4Pal][Trp(7-Cl)][αMeS][Phe(4-COOH)]Y[Sar][Trp(βS-Me,7-OMe)])
SMILES: CCCC[C@@H]1NC(=O)[C@@H]2CC[C@@H](C2)NC(=O)[C@H]([C@@H](C)c2c[nH]c3c(OC)cccc23)NC(=O)CN(C)C(=O)[C@H](Cc2ccc(O)cc2)NC(=O)[C@H](Cc2ccc(C(=O)O)cc2)NC(=O)[C@](C)(CO)NC(=O)[C@H](Cc2c[nH]c3c(Cl)cccc23)NC(=O)[C@H](Cc2ccncc2)NC(=O)[C@H](CCOC)NC(=O)[C@H](CCC(=O)O)N(C)C(=O)[C@H](Cc2c[nH]c3ccccc23)NC(=O)[C@@H]2CNCCN2C(=O)[C@H](Cc2ccncc2)NC1=O
B2: SEQ ID NO. 145 (peptide)
peptide: cyclo([bhcLeu][Nle][4Pal][Pip(5R-OH)]W[NMeE]N[AEF][Trp(7-Cl)][αMeS][Phe(4-CONH2)]Y[Sar][Trp(βS-Me,7-OMe)])
SMILES: CCCC[C@@H]1NC(=O)[C@@H]2CC[C@@H](C2)NC(=O)[C@H]([C@@H](C)c2c[nH]c3c(OC)cccc23)NC(=O)CN(C)C(=O)[C@H](Cc2ccc(O)cc2)NC(=O)[C@H](Cc2ccc(C(N)=O)cc2)NC(=O)[C@](C)(CO)NC(=O)[C@H](Cc2c[nH]c3c(Cl)cccc23)NC(=O)[C@H](Cc2ccc(OCCN)cc2)NC(=O)[C@H](CC(N)=O)NC(=O)[C@H](CCC(=O)O)N(C)C(=O)[C@H](Cc2c[nH]c3ccccc23)NC(=O)[C@@H]2CC[C@@H](O)CN2C(=O)[C@H](Cc2ccncc2)NC1=O
B3: SEQ ID NO. 178 (peptide)
peptide: cyclo([bhcLeu][Nle][4Pal][Pip(4-aza)]W[NMeE]N[4Pal][Trp(7-Cl)][αMeS][Phe(4-COOH)]H[Sar][Trp(βS-Me,7-OMe)])
SMILES: CCCC[C@@H]1NC(=O)[C@@H]2CC[C@@H](C2)NC(=O)[C@H]([C@@H](C)c2c[nH]c3c(OC)cccc23)NC(=O)CN(C)C(=O)[C@H](Cc2c[nH]cn2)NC(=O)[C@H](Cc2ccc(C(=O)O)cc2)NC(=O)[C@](C)(CO)NC(=O)[C@H](Cc2c[nH]c3c(Cl)cccc23)NC(=O)[C@H](Cc2ccncc2)NC(=O)[C@H](CC(N)=O)NC(=O)[C@H](CCC(=O)O)N(C)C(=O)[C@H](Cc2c[nH]c3ccccc23)NC(=O)[C@@H]2CNCCN2C(=O)[C@H](Cc2ccncc2)NC1=O
B4: SEQ ID NO. 175 (peptide)
peptide: cyclo([bhcLeu][Nle][4Pal][Pip(4-aza)]W[NMeE]N[4Pal][Trp(7-Cl)][αMeS][Phe(4-COOH)][Tyr(2-F)][Sar][Trp(βS-Me,7-OMe)])
SMILES: CCCC[C@@H]1NC(=O)[C@@H]2CC[C@@H](C2)NC(=O)[C@H]([C@@H](C)c2c[nH]c3c(OC)cccc23)NC(=O)CN(C)C(=O)[C@H](Cc2ccc(O)cc2F)NC(=O)[C@H](Cc2ccc(C(=O)O)cc2)NC(=O)[C@](C)(CO)NC(=O)[C@H](Cc2c[nH]c3c(Cl)cccc23)NC(=O)[C@H](Cc2ccncc2)NC(=O)[C@H](CC(N)=O)NC(=O)[C@H](CCC(=O)O)N(C)C(=O)[C@H](Cc2c[nH]c3ccccc23)NC(=O)[C@@H]2CNCCN2C(=O)[C@H](Cc2ccncc2)NC1=O
B5: SEQ ID NO. 171 (peptide)
peptide: cyclo([bhcLeu][Nle][4Pal][Pip(4-aza)]W[NMeE]N[Phe(4-CH2SO3H)][Trp(7-Cl)][αMeS][Phe(4-COOH)]Y[Sar][Trp(βS-Me,7-OMe)])
SMILES: CCCC[C@@H]1NC(=O)[C@@H]2CC[C@@H](C2)NC(=O)[C@H]([C@@H](C)c2c[nH]c3c(OC)cccc23)NC(=O)CN(C)C(=O)[C@H](Cc2ccc(O)cc2)NC(=O)[C@H](Cc2ccc(C(=O)O)cc2)NC(=O)[C@](C)(CO)NC(=O)[C@H](Cc2c[nH]c3c(Cl)cccc23)NC(=O)[C@H](Cc2ccc(CS(=O)(=O)O)cc2)NC(=O)[C@H](CC(N)=O)NC(=O)[C@H](CCC(=O)O)N(C)C(=O)[C@H](Cc2c[nH]c3ccccc23)NC(=O)[C@@H]2CNCCN2C(=O)[C@H](Cc2ccncc2)NC1=O
B6: SEQ ID NO. 166 (peptide)
peptide: cyclo([bhcLeu][FX1][4Pal][NMeS]W[NMeE]N[4Pal][Trp(7-Cl)][αMeS][Phe(4-COOH)]Y[Sar][Trp(βS-Me,7-OMe)])
SMILES: COc1cccc2c([C@H](C)[C@@H]3NC(=O)CN(C)C(=O)[C@H](Cc4ccc(O)cc4)NC(=O)[C@H](Cc4ccc(C(=O)O)cc4)NC(=O)[C@](C)(CO)NC(=O)[C@H](Cc4c[nH]c5c(Cl)cccc45)NC(=O)[C@H](Cc4ccncc4)NC(=O)[C@H](CC(N)=O)NC(=O)[C@H](CCC(=O)O)N(C)C(=O)[C@H](Cc4c[nH]c5ccccc45)NC(=O)[C@H](CO)N(C)C(=O)[C@H](Cc4ccncc4)NC(=O)[C@H](CCC(=O)Nc4cccnc4)NC(=O)[C@@H]4CC[C@@H](C4)NC3=O)c[nH]c12
B7: SEQ ID NO. 177 (peptide)
peptide: {CH2CO}-[Nle][PyrimAla][Bhv][Trp(7-aza)][NMeE]N[4Pal][Trp(7-Cl)][αMeS][Phe(4-COOH)]Y[Sar][Trp(βS-Me,7-OMe)]C-NH2
modifications: thioether N-14; reading uncertain; also: printed as cyclo(ClAc-Nle-PyrimAla-Bhv-Trp7az-NMeE-N-4Pal-Trp7Cl-aMeS-Phe4COOH-Y-Sar-SbMeW7OMe-C)-NH2
B8: SEQ ID NO. 167 (peptide)
peptide: {CH2CO}-[Nle][4Pal][Pip(4-aza)]W[dPro4cPr]N[4Pal][Trp(7-Cl)][αMeS][Phe(4-COOH)]Y[Sar][Trp(βS-Me,7-OMe)]C-NH2
modifications: thioether N-14
SMILES: CCCC[C@@H]1NC(=O)CSC[C@@H](C(N)=O)NC(=O)[C@H]([C@@H](C)c2c[nH]c3c(OC)cccc23)NC(=O)CN(C)C(=O)[C@H](Cc2ccc(O)cc2)NC(=O)[C@H](Cc2ccc(C(=O)O)cc2)NC(=O)[C@](C)(CO)NC(=O)[C@H](Cc2c[nH]c3c(Cl)cccc23)NC(=O)[C@H](Cc2ccncc2)NC(=O)[C@H](CC(N)=O)NC(=O)[C@H]2CC3(CC3)CN2C(=O)[C@H](Cc2c[nH]c3ccccc23)NC(=O)[C@@H]2CNCCN2C(=O)[C@H](Cc2ccncc2)NC1=O
B9: SEQ ID NO. 185 (peptide)
peptide: {CH2CO}-[Nle][4Pal][Pip(5R-OH)]W[dHyp]N[Phe(4-COOH)][Trp(7-Cl)][αMeS][Phe(4-CONH2)]Y[Sar][Trp(βS-Me,7-OMe)]C-NH2
modifications: thioether N-14
SMILES: CCCC[C@@H]1NC(=O)CSC[C@@H](C(N)=O)NC(=O)[C@H]([C@@H](C)c2c[nH]c3c(OC)cccc23)NC(=O)CN(C)C(=O)[C@H](Cc2ccc(O)cc2)NC(=O)[C@H](Cc2ccc(C(N)=O)cc2)NC(=O)[C@](C)(CO)NC(=O)[C@H](Cc2c[nH]c3c(Cl)cccc23)NC(=O)[C@H](Cc2ccc(C(=O)O)cc2)NC(=O)[C@H](CC(N)=O)NC(=O)[C@H]2C[C@H](O)CN2C(=O)[C@H](Cc2c[nH]c3ccccc23)NC(=O)[C@@H]2CC[C@@H](O)CN2C(=O)[C@H](Cc2ccncc2)NC1=O
B10: SEQ ID NO. 164 (peptide)
peptide: {CH2CO}-[Nle][Phe(4-CONH2)][Val(3-OH)][Trp(7-aza)][NMeE]N[4Pal][Trp(7-Cl)][αMeS][Phe(4-COOH)]Y[Sar][Trp(βS-Me,7-OMe)]C-NH2
modifications: thioether N-14
SMILES: CCCC[C@@H]1NC(=O)CSC[C@@H](C(N)=O)NC(=O)[C@H]([C@@H](C)c2c[nH]c3c(OC)cccc23)NC(=O)CN(C)C(=O)[C@H](Cc2ccc(O)cc2)NC(=O)[C@H](Cc2ccc(C(=O)O)cc2)NC(=O)[C@](C)(CO)NC(=O)[C@H](Cc2c[nH]c3c(Cl)cccc23)NC(=O)[C@H](Cc2ccncc2)NC(=O)[C@H](CC(N)=O)NC(=O)[C@H](CCC(=O)O)N(C)C(=O)[C@H](Cc2c[nH]c3ncccc23)NC(=O)[C@H](C(C)(C)O)NC(=O)[C@H](Cc2ccc(C(N)=O)cc2)NC1=O
B11: SEQ ID NO. 182 (peptide)
peptide: cyclo([1S4RAcpc][Nle][4Pal][Pip(4-aza)]W[NMeE]N[4Pal][Trp(7-Cl)][αMeS][Phe(4-COOH)]Y[Sar][Trp(βS-Me,7-OMe)])
SMILES: CCCC[C@@H]1NC(=O)[C@@H]2C=C[C@@H](C2)NC(=O)[C@H]([C@@H](C)c2c[nH]c3c(OC)cccc23)NC(=O)CN(C)C(=O)[C@H](Cc2ccc(O)cc2)NC(=O)[C@H](Cc2ccc(C(=O)O)cc2)NC(=O)[C@](C)(CO)NC(=O)[C@H](Cc2c[nH]c3c(Cl)cccc23)NC(=O)[C@H](Cc2ccncc2)NC(=O)[C@H](CC(N)=O)NC(=O)[C@H](CCC(=O)O)N(C)C(=O)[C@H](Cc2c[nH]c3ccccc23)NC(=O)[C@@H]2CNCCN2C(=O)[C@H](Cc2ccncc2)NC1=O
B12: SEQ ID NO. 158 (peptide)
peptide: {CH2CO}-[Nle][4Pal][Pip2c][Trp(7-aza)][NMeE]N[4Pal][Trp(7-Cl)][αMeS][Phe(4-COOH)][TyrOCF3][Sar][Trp(βS-Me,7-OMe)]C-NH2
modifications: thioether N-14; reading uncertain; also: printed as cyclo(ClAc-Nle-4Pal-Pip2c-Trp7az-NMeE-N-4Pal-Trp7Cl-aMeS-Phe4COOH-TyrOCF3-Sar-SbMeW7OMe-C)-NH2

Molecular target: T1, TNFR1 on THP-1 Lucia NF-κB cells
Experiment: cell-based or functional assay

Binder | THP-1 IC50 [nM]
B1 | 1.2
B2 | 0.8
B3 | 3.3
B4 | 0.9
B5 | 0.9
B6 | 2.7
B7 | 3.3
B8 | 2.6
B9 | 0.9
B10 | 3.6
B11 | 0.9
B12 | 5.3
